T1: recombinant mhm chimeric HGF protein containing the region I499-R556 of hHGF disposed between murine sequences (mouse-human-mouse chimera, UniProt Q08048 56-728)
T1 construct: also called mhm chimera (I499-R556)
T1 chain: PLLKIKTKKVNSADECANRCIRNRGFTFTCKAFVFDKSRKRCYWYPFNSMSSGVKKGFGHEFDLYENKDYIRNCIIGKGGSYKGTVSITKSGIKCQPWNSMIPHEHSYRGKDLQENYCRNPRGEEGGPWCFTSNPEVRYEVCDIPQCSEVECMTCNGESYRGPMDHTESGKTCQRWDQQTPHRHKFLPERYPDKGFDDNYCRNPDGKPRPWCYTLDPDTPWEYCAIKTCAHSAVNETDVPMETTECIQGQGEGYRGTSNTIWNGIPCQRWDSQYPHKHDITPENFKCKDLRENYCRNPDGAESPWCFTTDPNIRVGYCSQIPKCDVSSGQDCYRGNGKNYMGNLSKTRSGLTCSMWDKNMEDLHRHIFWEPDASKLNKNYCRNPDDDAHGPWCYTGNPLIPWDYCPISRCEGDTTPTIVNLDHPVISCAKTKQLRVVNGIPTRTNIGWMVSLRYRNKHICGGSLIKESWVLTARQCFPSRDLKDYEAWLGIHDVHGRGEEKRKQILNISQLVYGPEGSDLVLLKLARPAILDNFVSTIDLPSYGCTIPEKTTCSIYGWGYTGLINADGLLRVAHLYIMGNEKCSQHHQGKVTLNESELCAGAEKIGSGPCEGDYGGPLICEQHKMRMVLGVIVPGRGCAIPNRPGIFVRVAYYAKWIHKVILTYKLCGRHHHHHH

T2: recombinant mhm chimeric HGF protein containing human W507-L585 HGF sequence disposed within mouse HGF … (mouse-human-mouse chimera, UniProt Q08048 56-728)
T2 construct: CHO supernatant; also called mhm chimera (W507-L585); MHM chimera (507-585)
T2 chain: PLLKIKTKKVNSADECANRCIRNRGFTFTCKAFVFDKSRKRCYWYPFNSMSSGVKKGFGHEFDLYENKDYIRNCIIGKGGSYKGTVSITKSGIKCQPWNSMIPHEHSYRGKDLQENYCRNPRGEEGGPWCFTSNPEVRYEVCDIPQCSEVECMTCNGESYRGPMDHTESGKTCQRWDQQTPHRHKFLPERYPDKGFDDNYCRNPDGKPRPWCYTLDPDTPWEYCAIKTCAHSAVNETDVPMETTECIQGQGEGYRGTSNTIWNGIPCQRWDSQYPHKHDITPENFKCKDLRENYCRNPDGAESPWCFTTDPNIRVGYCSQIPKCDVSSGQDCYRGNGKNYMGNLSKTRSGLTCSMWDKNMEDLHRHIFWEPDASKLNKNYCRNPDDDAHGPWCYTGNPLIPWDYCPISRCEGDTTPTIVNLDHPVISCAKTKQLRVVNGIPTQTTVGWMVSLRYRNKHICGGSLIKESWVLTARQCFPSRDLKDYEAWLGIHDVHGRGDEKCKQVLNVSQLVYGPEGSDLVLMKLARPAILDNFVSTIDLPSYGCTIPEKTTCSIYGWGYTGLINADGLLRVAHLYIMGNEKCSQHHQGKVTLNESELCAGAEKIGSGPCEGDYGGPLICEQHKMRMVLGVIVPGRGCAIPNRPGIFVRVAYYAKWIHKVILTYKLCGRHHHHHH


How the values were obtained:
[1] = biological target: T3, recombinant human HGF (R&D Systems, Catalog No. 294-HGN-025) (human, UniProt P14210 32-728); assay: SPR, captured antibody, HGF injected, 37 C
T3 construct: Mature HGF is a disulfide-linked heterodimer of alpha and beta chain cut from one precursor; also called rhHGF (R&D Systems); rhHGF
T3 sequence (P14210 32-728 limits assumed): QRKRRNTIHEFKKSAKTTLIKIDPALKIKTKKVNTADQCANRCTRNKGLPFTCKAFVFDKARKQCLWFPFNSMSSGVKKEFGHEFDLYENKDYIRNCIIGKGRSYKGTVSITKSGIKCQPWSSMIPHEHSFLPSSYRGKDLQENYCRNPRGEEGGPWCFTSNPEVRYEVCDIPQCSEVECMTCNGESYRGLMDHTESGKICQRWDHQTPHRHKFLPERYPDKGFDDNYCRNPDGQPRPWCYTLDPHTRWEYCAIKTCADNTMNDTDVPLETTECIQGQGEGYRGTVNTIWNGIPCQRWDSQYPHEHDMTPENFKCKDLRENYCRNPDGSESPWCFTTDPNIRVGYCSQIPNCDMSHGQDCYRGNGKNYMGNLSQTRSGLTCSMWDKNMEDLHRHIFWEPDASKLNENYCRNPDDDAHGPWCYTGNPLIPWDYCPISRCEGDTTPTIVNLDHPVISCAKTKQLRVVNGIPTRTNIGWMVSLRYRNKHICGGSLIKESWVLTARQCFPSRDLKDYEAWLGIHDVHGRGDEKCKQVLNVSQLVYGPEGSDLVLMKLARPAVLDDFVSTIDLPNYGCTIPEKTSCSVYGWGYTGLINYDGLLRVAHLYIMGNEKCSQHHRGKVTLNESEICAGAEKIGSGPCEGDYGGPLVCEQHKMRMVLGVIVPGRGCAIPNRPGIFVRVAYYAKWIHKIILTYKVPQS
Description: (§1) Mouse anti-human immunoglobulins (Jackson Labs, Catalog No. 209-005) or rabbit anti-mouse immunoglobulins (BIAcore, Catalog No. BR-1005-14) were immobilized on carboxymethylated dextran CM4 sensor chips (BIAcore, Catalog No. BR-1006-68) by amine coupling (BIAcore, Catalog No. BR-1000-50) using a standard coupling protocol according to manufacturer's instructions. […] The analyses were performed at 25° C. and 37° C. using PBS (GIBCO, Catalog No. 14040-133) containing 0.05% surfactant P20 (BIAcore, Catalog No. BR-1000-54), and 2 mg/mL BSA (EMD, Catalog No. 2930) as running buffer.
(§2) The antibodies were captured in an individual flow cell at a flow rate of […]. Injection time was variable for each antibody to yield approximately 20 RU of antibody captured for each cycle. […] The dissociation phase was monitored for 15 or 90 minutes, depending on concentration. The surface of mouse anti-human immunoglobulins sensor chips was then regenerated with 10 mM Glycine-HCl, pH 2.2 (BIAcore, Catalog No. BR-1003-54) injected for 3 minutes at a flow rate of 60 μL/min before another cycle was initiated. The surface of rabbit anti-mouse immunoglobulins sensor chips was regenerated with 10 mM Glycine-HCl, pH 1.7 (BIAcore, Catalog No. BR-1003-54) injected for 3 minutes at a flow rate of 60 μL/min before another cycle was initiated.
(§3) Kinetic parameters were determined using the kinetic function of the BIAevaluation software with reference subtraction.

[2] = biological target: T1, recombinant mhm chimeric HGF protein …; assay: SPR, antibody immobilized, HGF protein injected, 25 C
Description: (§4) Analyses were performed at 25° C. using PBS (GIBCO, Catalog No. 14040-133) containing 0.05% surfactant P20 (BIAcore, Catalog No. R-1000-54), 2 mg/mL BSA (EMD, Catalog No. 2930) and 10 mg/mL CM-Dextran Sodium salt (Fluka, Catalog No. 86524) as running buffer. […] The resulting binding was determined as resonance units (RU) over baseline 30 seconds after the end of injection. […] Non-specific binding was monitored by comparing binding to a control surface.

[3] = biological target: T4, recombinant mouse HGF (R&D Systems) (mouse, UniProt Q08048 33-728); assay: as above
T4 construct: Bought protein, construct not described; also called rmHGF (R&D Systems); murine HGF
T4 sequence (Q08048 33-728 limits assumed): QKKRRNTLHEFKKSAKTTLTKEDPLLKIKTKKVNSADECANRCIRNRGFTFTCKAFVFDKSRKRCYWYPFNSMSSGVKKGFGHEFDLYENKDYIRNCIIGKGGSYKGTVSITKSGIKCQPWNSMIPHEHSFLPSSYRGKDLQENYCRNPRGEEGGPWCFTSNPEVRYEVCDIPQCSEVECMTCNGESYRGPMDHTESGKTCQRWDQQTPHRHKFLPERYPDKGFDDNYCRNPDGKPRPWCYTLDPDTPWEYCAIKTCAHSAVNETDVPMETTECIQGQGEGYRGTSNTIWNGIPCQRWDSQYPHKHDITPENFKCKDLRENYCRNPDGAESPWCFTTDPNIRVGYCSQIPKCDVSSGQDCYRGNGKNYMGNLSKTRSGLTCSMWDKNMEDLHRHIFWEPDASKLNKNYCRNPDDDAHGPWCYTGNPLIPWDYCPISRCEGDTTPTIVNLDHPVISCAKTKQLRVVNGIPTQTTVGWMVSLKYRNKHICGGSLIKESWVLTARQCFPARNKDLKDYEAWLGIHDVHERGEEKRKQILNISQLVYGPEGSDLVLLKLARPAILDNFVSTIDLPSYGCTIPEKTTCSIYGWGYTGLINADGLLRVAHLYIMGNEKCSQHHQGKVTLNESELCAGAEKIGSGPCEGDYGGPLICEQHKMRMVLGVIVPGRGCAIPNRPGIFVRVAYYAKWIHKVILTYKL
Description: as §4

[4] = biological target: T2, recombinant mhm chimeric HGF protein …; assay: as above
Description: as §4

[5] = biological target: T3, recombinant human HGF (R&D Systems, …); assay: SPR, captured antibody, HGF injected, 25 C
Description: as §1, §2, §3

[6] = biological target: T3, recombinant human HGF (R&D Systems, …); assay: cell-based or functional assay

Row | Kd [1] | koff [1] | kon [1] | binding result [2] | binding result [3] | binding result [4] | Kd [5] | koff [5] | kon [5] | EC50, inhibition of HGF-stimulated c-Met phosphorylation in PC-3 cells, Average of Two Trials [6] | Binder
1 | 4.5 pM | 1.3e-05 s⁻¹ | 2.8e+06 M⁻¹ s⁻¹ | binds | no binding | binds | 13.5 pM | 2.1e-05 s⁻¹ | 1.6e+06 M⁻¹ s⁻¹ | 910 pM | anti-hHGF monoclonal antibody 2B8 (antibody, mouse IgG1, kappa, Murine IgG1 kappa from hybridoma; also called murine 2B8; mouse 2B8) heavy: QVQLQQPGAELVKPGTSVKLSCKASGYTFTTYWMHWVNQRPGQGLEWIGEINPTNGHTNYNEKFKSKATLTVDKSSSTAYMQLSSLTSEDSAVYYCARNYVGSIFDYWGQGTTLTVSSAKTTPPSVYPLAPGSAAQTNSMVTLGCLVKGYFPEPVTVTWNSGSLSSGVHTFPAVLQSDLYTLSSSVTVPSSTWPSETVTCNVAHPASSTKVDKKIVPRDCGCKPCICTVPEVSSVFIFPPKPKDVLTITLTPKVTCVVVDISKDDPEVQFSWFVDDVEVHTAQTQPREEQFNSTFRSVSELPIMHQDWLNGKEFKCRVNSAAFPAPIEKTISKTKGRPKAPQVYTIPPPKEQMAKDKVSLTCMITDFFPEDITVEWQWNGQPAENYKNTQPIMDTDGSYFVYSKLNVQKSNWEAGNTFTCSVLHEGLHNHHTEKSLSHSPGK light: NIVMTQSPKSMSMSVGERVTLSCKASENVVSYVSWYQQKPAQSPKLLIYGASNRNTGVPDRFTGSGSATDFTLTISSVRAEDLADYHCGQSYNYPYTFGGGTRLEIKRADAAPTVSIFPPSSEQLTSGGASVVCFLNNFYPKDINVKWKIDGSERQNGVLNSWTDQDSKDSTYSMSSTLTLTKDEYERHNSYTCEATHKTSTSPIVKSFNRNEC
2 | 3.3 pM | 1e-05 s⁻¹ | 3.1e+06 M⁻¹ s⁻¹ | binds | no binding | binds | 5.6 pM | 1.2e-05 s⁻¹ | 2e+06 M⁻¹ s⁻¹ | 750 pM | HE2B8-4 (LRMR2B8HC + IgG1 constant region G1m(3) allotype allele 1, plus LRMR2B8LC + Kappa constant region Km(3) allotype allele 1) (antibody, V domains shown, Human Engineered 2B8 variant, human IgG1 kappa, made in HEK293E cells) VH: QVQLVQPGAEVKKPGTSVKLSCKASGYTFTTYWMHWVRQAPGQGLEWIGEINPTNGHTNYNQKFQGRATLTVDKSTSTAYMELSSLRSEDTAVYYCARNYVGSIFDYWGQGTLLTVSS VL: DIVMTQSPDSLAMSLGERVTLNCKASENVVSYVSWYQQKPGQSPKLLIYGASNRESGVPDRFSGSGSATDFTLTISSVQAEDVADYHCGQSYNYPYTFGQGTKLEIKR
